Assay results reported in PMC10786891, “Massively parallel profiling of RNA-targeting CRISPR-Cas13d”.
Residue numbers refer to the chain shown, from its start. Numbers in names are those of the source.

T1: EsCas13d, nuclease-dead (Eubacterium siraeum, UniProt B0MS50, R295A;H300A;R849A;H854A)
T1 sequence: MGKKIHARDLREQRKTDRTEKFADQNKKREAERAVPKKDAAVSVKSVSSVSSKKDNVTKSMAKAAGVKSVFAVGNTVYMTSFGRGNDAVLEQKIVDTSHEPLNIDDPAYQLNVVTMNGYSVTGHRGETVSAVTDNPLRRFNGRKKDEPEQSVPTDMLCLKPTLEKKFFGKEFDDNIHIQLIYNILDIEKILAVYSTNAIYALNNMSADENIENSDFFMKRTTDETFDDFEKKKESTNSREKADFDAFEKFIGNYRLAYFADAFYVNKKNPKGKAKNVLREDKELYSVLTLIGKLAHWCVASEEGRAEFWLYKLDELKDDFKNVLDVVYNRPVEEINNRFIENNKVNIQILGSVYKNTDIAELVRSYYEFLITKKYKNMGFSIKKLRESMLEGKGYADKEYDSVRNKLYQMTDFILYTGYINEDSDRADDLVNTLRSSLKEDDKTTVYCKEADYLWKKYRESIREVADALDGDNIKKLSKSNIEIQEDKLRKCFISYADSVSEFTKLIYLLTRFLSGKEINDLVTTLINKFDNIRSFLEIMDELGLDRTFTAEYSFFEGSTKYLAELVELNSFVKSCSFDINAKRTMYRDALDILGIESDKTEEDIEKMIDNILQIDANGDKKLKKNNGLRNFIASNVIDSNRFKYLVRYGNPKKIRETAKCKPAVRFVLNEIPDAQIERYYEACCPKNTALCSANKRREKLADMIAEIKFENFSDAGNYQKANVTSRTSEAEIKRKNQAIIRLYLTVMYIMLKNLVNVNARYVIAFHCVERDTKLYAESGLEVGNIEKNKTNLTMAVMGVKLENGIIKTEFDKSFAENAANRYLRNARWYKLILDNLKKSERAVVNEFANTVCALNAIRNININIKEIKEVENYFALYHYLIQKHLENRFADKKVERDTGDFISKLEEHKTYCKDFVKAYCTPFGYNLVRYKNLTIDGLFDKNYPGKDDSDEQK

B1: target 1 insC 3' of 15,insG 3' of 4 (mixed)
RNA 1: CACCCGUGCAAAAAUGCAGGGGUCUAAAACUGAGCGGAUAACCUCUCUAUGG
RNA 2: GGGAAUGGAUCCACAUCUACGAAUUCGUACCAUAGAGCAGGUUAUCCGCGUCACCGAGAUCGGAAGAGCACACGU
B2: target 1 insA 3' of 12,insG 3' of 2 (mixed)
RNA 1: B1 RNA 1
RNA 2: B1 RNA 2 with C38A, A39G, G41A, G50U, U51C, C52G
B3: target 1 insC 3' of 18 (mixed)
RNA 1: B1 RNA 1
RNA 2: GGGAAUGGAUCCACAUCUACGAAUUCGUACCAUACGAGAGGUUAUCCGCUCACCGAGAUCGGAAGAGCACACGU
B4: target 1 insU 3' of 22,insU 3' of 9 (mixed)
RNA 1: B1 RNA 1
RNA 2: GGGAAUGGAUCCACAUCUACGAAUUCGUACUCAUAGAGAGGUUAUUCCGCUCACCGAGAUCGGAAGAGCACACGU
B5: target 1 U8A,C21U (mixed)
RNA 1: B1 RNA 1
RNA 2: GGGAAUGGAUCCACAUCUACGAAUUCGUACUAUAGAGAGGUUAACCGCUCACCGAGAUCGGAAGAGCACACGU
B6: target 1 insU 3' of 18,insC 3' of 18 (mixed)
RNA 1: B1 RNA 1
RNA 2: GGGAAUGGAUCCACAUCUACGAAUUCGUACCAUAUCGAGAGGUUAUCCGCUCACCGAGAUCGGAAGAGCACACGU
B7: target 1 insU 3' of 16,insC 3' of 16 (mixed)
RNA 1: B1 RNA 1
RNA 2: B6 RNA 2 with U35G, C36A, G37U, A38C
B8: target 1 insA 3' of 22,insU 3' of 13 (mixed)
RNA 1: B1 RNA 1
RNA 2: B4 RNA 2 with U31A, G41U, U42G, A44U, U45A
B9: target 1 insG 3' of 10,insU 3' of 7 (mixed)
RNA 1: B1 RNA 1
RNA 2: B1 RNA 2 with C38A, A39G, G41U, U43G, C47U, G48C, C49G, G50C
B10: target 1 insA 3' of 19,insU 3' of 5 (mixed)
RNA 1: B1 RNA 1
RNA 2: B1 RNA 2 with G35A, A36G, G37A, C38G, C49U, G50C
B11: target 1 A9U,G13A (mixed)
RNA 1: B1 RNA 1
RNA 2: B5 RNA 2 with U31C, G39A, A43U, A44U
B12: target 1 A16C,G17U (mixed)
RNA 1: B1 RNA 1
RNA 2: B5 RNA 2 with U31C, G35U, A36C, A44U
B13: target 1 insC 3' of 19 (mixed)
RNA 1: B1 RNA 1
RNA 2: B3 RNA 2 with A34C, C35A
B14: target 1 insC 3' of 19,insC 3' of 18 (mixed)
RNA 1: B1 RNA 1
RNA 2: B6 RNA 2 with A34C, U35A
B15: target 1 insC 3' of 12,insG 3' of 6 (mixed)
RNA 1: B1 RNA 1
RNA 2: B1 RNA 2 with C38A, A39G, G41C, C49G, G50C
B16: target 1 C6A,U19A (mixed)
RNA 1: B1 RNA 1
RNA 2: B5 RNA 2 with U31C, U33A, A44U, C46A
B17: target 1 insU 3' of 20,insA 3' of 7 (mixed)
RNA 1: B1 RNA 1
RNA 2: B4 RNA 2 with U31C, C32A, A33U, U46C, C47A
B18: target 1 del7,del22 (mixed)
RNA 1: B1 RNA 1
RNA 2: GGGAAUGGAUCCACAUCUACGAAUUCGUACAUAGAGAGGUUAUCGCUCACCGAGAUCGGAAGAGCACACGU
B19: target 1 insG 3' of 11,insC 3' of 8 (mixed)
RNA 1: B1 RNA 1
RNA 2: B1 RNA 2 with C38A, A39G, G41U, U42G, G48C, C49G, G50C
B20: target 1 C7U,A14C (mixed)
RNA 1: B1 RNA 1
RNA 2: B5 RNA 2 with U31C, A38C, A44U, C45U
B21: target 1 insA 3' of 6,insC 3' of 5 (mixed)
RNA 1: B1 RNA 1
RNA 2: B1 RNA 2 with C38A, A39G, G41U, U43A, A44U, U45C, C47A, G50C
B22: target 1 insU 3' of 21,insC 3' of 10 (mixed)
RNA 1: B1 RNA 1
RNA 2: B4 RNA 2 with U31C, C32U, A44C, U45A
B23: target 1 C2A,G12U (mixed)
RNA 1: B1 RNA 1
RNA 2: B5 RNA 2 with U31C, G40U, A44U, C50A
B24: target 1 insA 3' of 12,insA 3' of 7 (mixed)
RNA 1: B1 RNA 1
RNA 2: B1 RNA 2 with C38A, A39G, G41A, C47A, G48C, C49G, G50C
B25: target 1 C2G,A14G (mixed)
RNA 1: B1 RNA 1
RNA 2: B5 RNA 2 with U31C, A38G, A44U, C50G
B26: target 1 C2G,C22A (mixed)
RNA 1: B1 RNA 1
RNA 2: B5 RNA 2 with C30A, U31C, A44U, C50G
B27: target 1 insU 3' of 21,insG 3' of 4 (mixed)
RNA 1: B1 RNA 1
RNA 2: B4 RNA 2 with U31C, C32U, U46C, C48G, G49C, C50G
B28: target 1 insU 3' of 2,insG 3' of 2 (mixed)
RNA 1: B1 RNA 1
RNA 2: GGGAAUGGAUCCACAUCUACGAAUUCGUACCAUAGAGAGGUUAUCCGCUCUGACCGAGAUCGGAAGAGCACACGU
B29: target 1 G12A,G17C (mixed)
RNA 1: B1 RNA 1
RNA 2: B5 RNA 2 with U31C, G35C, G40A, A44U
B30: target 1 insG 3' of 16,insC 3' of 9 (mixed)
RNA 1: B1 RNA 1
RNA 2: B1 RNA 2 with C38G, U45C, C46U, G48C, C49G, G50C
B31: target 1 insC 3' of 22,insA 3' of 17 (mixed)
RNA 1: B1 RNA 1
RNA 2: B6 RNA 2 with A32C, U33A, A34U, U35A, C36G, G37A
B32: target 1 insA 3' of 8,insG 3' of 4 (mixed)
RNA 1: B1 RNA 1
RNA 2: B28 RNA 2 with C45A, G47C, C48G, U49C, C50G, G52C
B33: target 1 C6A,A16G (mixed)
RNA 1: B1 RNA 1
RNA 2: B5 RNA 2 with U31C, A36G, A44U, C46A

Target: T1, EsCas13d, nuclease-dead
Experiment: crRNA (strand 1, pre-loaded); Mg2+; 40 mM Tris-HCl pH 7.5, 150 mM NaCl, 6 mM MgCl2, 1 mM DTT, 0.1% Tween-20, 0.2 mg/ml BSA; 25 C; 10 min per concentration, then washed
Conditions: tags: His6-TwinStrep-SUMO cleaved; N-terminal SNAP kept (SNAP-Surface 488); label: 3' end held by stalled T7 RNA polymerase

Binder	Kd [nM]
B1	10.7 ± 0.6
B2	30 ± 4
B3	30.3 ± 1.9
B4	~60
B5	9.1 ± 0.4
B6	84 ± 9
B7	47 ± 4
B8	20.6 ± 2.9
B9	21.8 ± 0.9
B10	41 ± 6
B11	12.9 ± 0.9
B12	28 ± 1.4
B13	26.9 ± 2.2
B14	45.8 ± 3.4
B15	9.1 ± 1.6
B16	29.8 ± 1.7
B17	9.9 ± 0.6

Binder	Kd [nM]
B18	22.6 ± 1.3
B19	39 ± 6
B20	30 ± 4
B21	23.9 ± 1.9
B22	51 ± 9
B23	9.2 ± 0.4
B24	25.9 ± 2.4
B25	15.6 ± 1.8
B26	16.9 ± 1.8
B27	24.9 ± 2.8
B28	8.6 ± 0.6
B29	34 ± 8
B30	23.4 ± 1.1
B31	33 ± 5
B32	7.7 ± 0.5
B33	28.8 ± 1.4
